# Measurements published in the RNAGym collection of RNA variant scans (doi:10.1073/pnas.2313332121).
# Fewer inactive variants are shown than the library holds.
# B1: TPR 5TU (parent)
# chain: GGAUCUUCUCGAUCUAACAAAAAAGACAAAUCUGCCACAAAGCUUGAGAGCAUCUUCGGAUGCAGAGGCGGCAGCCUUCGGUGGCGCGAUAGCGCCAACGUUCUCAACUAUGACACGCAAAACGCGUGCUCCGUUGAAUGGAGUUUAUCAUG
# Variants of: B1
# Test: polymerase ribozyme fitness, log enrichment relative to wild type (log ratio); higher = more active; in vitro selection for triplet polymerase activity
# Method in brief: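 Mutant libraries were PCR-built and transcribed for each subunit of a heterodimeric triplet polymerase ribozyme and selected for one round in triplicate at −7 °C, frozen, before gel excision of extended constructs and streptavidin-bead capture. Input and output libraries were Illumina-sequenced, keeping genotypes with ≥10 input reads and ≥1 read per output. Fitness is a logarithmic ratio of genotype to wild-type enrichment, in base 2, using inverse-variance-weighted replicate averages.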
row,Variant,polymerase ribozyme fitness (log ratio)
1,GGAUCUUCUCGAUCUAACAAAAAAGACAAAUCUGCCACAAAGCUUGAGAGCAUCGUCGGAUGCAGAGGCGGCAGUCUUCGGUGGCGCGAUAGCGCCAACGUUCUCAACUAUGACACGCAAAACGCGUGCUCCGUUGAAUGGAGUUUAUCAUG [U55G C75U],-0.769
2,GGAUCUUCUCGAUCUAACAAAAAAGACAAAUCUGCCACAAAGCUUGAGAGCAUCGUCGGAUGCAGAGGCGGCAGCCUUCGGUGGCGAGAUAGCGCCAACGUUCUCAACUAUGACACGCAAAACGCGUGCUCCGUUGAAUGCAGUUUAUCAUG [U55G C87A G141C],-3.74
3,GGAUCUUCUCGAUCUAACAAAAAAGACAAAUCUGCCACAAAGCUUGAGAGCAUCGUCGGAUGCAGAGGCGGCAGCCUUCGGUGGCGUGAUAGCGCCAACGUUCUCAACUAUGACACGCAAAACGCGUGCCCCGUUGAAUGGAGUUUAUCAUG [U55G C87U U130C],-0.00301
4,GGAUCUUCUCGAUCUAACAAAAAAGACAAAUCUGCCACAAAGCUUGAGAGCAUCGUCGGAUGCAGAGGCAGCAGCCUUCGGUGGCGCGAUAGCGCCAACGUUCUCAACUAUGACACGCAAAACGCGUGGUCCGUUGAAUGGAGUUUAUCAUG [U55G G70A C129G],≤ -4.2
5,GGAUCUUCUCGAUCUAACAAAAAAGACAAAUCUGCCACAAAGCUUGAGAGCAUCGUCGGAUGCAGAGGCGGCAGCCUUCGGUGGCGAGAUAGCGCCAACGUUCUCAACUAUGACACGUAAAACGCGUGCGCCGUUGAAUGGAGUUUAUCAUG [U55G C87A C118U U130G],≤ -4.2
6,GGAUCUUCUCGAUCUAACAAAAAAGACAAAUCUGCCACAAAGCUUGAGAGCAUCGUCGGAUGCAGAGGCGGCAGCCUUCGGUGGCGCGAUAGCGCAAACGUUCUUAACUAUGACACGCAAAACGCGUGCUCCGUUGAAUGGAGUUUAUCAUG [U55G C96A C105U],-0.496
7,GGAUCUUCUCGAUCUAACAAAAAAGACAAAUCUGCCACAAAGCUUGAGAGCAUCGUCGGAUGCAGAGGCGGUAGCCUUCGGUGGCGCGAUAGCGCCAACGUUCUCAACUAUGACACGCAAAACGCGUGCUCCGUUCAAUGGAGUUUAUCAUG [U55G C72U G136C],-3.74
8,GGAUCUUCUCGAUCUAACAAAAAAGACAAAUCUGCCACAAAGCUUGAGAGCAUCGUCGGAUGCAGAGGCGGCAGCCUUCGAUGGCGCGAUAGCGCCAACGUUCUCAACUAUGACACGCAAAACGCGUGCUCCGUUGAACGGAGUUUAUCAUG [U55G G81A U139C],≤ -4.2
9,GGAUCUUCUCGAUCUAACAAAAAAGACAAAUCUGCCACAAAGCUUGAGAGCAUCGUCGGAUGCAGAGGCGGCAGCCUUCGGUGGCGCGAUAGUGCCAACGGUCUCAACUAUGACACGCAAAACGCGUGCUCCGUUGAAUGGAGUUUAUCAUG [U55G C93U U101G],-0.936
10,GGAUCUUCUCGAUCUAACAAAAAAGACAAAUCUGCCACAAAGCUUGAGAGCAUCGUCGGAUGCAGAGGCGGCAGCCUUCGGUGGCGCGAUAGUGCCAACGUUCUCAACUAUGACACGCAAAACGCGUGCUCCGUUGAAUGGAGUUUAUCAUG [U55G C93U],-1.83
11,GGAUCUUCUCGAUCUAACAAAAAAGACAAAUCUGCCACAAAGCUUGAGAGCAUCGUCGGAUGCAGAGGCGGCAGCCUUCGGUGGCGCGAUAGGGCCAACGUUCUCAACUAUGACACGCAAAACGCGUGCUCCGUUGAAUGGAGUUUAUCAUG [U55G C93G],-4.19
12,GGAUCUUCUCGAUCUAACAAAAAAGACAAAUCUGCCACAAAGCUUGAGAGCAUCGUCGGAUGCAGAGGCGGCAGCCUUCGGUGGGGCGAUAGCGCCAACGUUCUCAACUAUGACACGCAAAACGCGUGCUCUGUUGAAUGGAGUUUAUCAUG [U55G C85G C132U],-2.9
13,GGAUCUUCUCGAUCUAACAAAAAAGACAAAUCUGCCACAAAGCUUGAGAGCAUCGUCGGAUGCAGAGGAGGCAGCCUUCGGUGGCGCGAUAGCGCCAAUGUUCUCAACUAUGACACGCAAAACGCGUGCUCCGUUGAAUGGAGUUUAUCAUG [U55G C69A C99U],-0.89
14,GGAUCUUCUCGAUCUAACAAAAAAGACAAAUCUGCCACAAAGCUUGAGAGCAUCGUCGCAUGCAGAGGCGGCAGCCUUCGGUGGCGCGAUAGCCCCAACGUACUCAACUAUGACACGCAAAACGCGAGCUCCGUCGAAUGGAGUUUAUCAUG [U55G G59C G94C U102A U127A U135C],≤ -4.2
15,GGAUCUUCUCGAUCUAACAAAAAAGACAAAUCUGCCACAAAGCUUGAGAGCAUCGUCCUAUGCAGACGCGGCAGCCUACGGUGGCGCGAUAGCGUCAACGUUCUCAACUAUGGCACGCAAAACGCGUGCUCCGUUGAAUGGAGUUUAUCAUG [U55G G58C G59U G67C U78A C95U A113G],≤ -4.2
16,GGAUCUUCUCGAUCUAACAAAAAAGACAAAUCUGCCACAAAGCUUGAGAGCAUCGUCGGAUGCAGAGGCGGCAGCCUUGGGUGGCGCGAUAGCGCCAACGUUCUCAACUAUGACACGCAAAACGCGUGCUCCGUUGAAUGGAGUAUAUCAUG [U55G C79G U145A],≤ -4.2
17,GGAUCUUCUCGAUCUAACAAAAAAGACAAAUCUGCCACAAAGCUUGAGAGCAUCGUCAGAUGCAGAGGCGGCAGCCUUCGGUGGCGCGAUAGAGCCAACGUUCUCAACGAUGACACGCAAAACGCGUGCUCCGUUGAAUGGAGUUUAUCAUG [U55G G58A C93A U109G],-3.3
18,GGAUCUUCUCGAUCUAACAAAAAAGACAAAUCUGCCACAAAGCUUGAGAGCAUCGUCGGAUGCAGAGCCGGCAGCCUUCGGUGGCGCGAUAGCGCCAACGUUCUCACCUAUGACACGCAAAACGAGUGCUCCGUUGAAUGGAGUUUAUCAGG [U55G G68C A107C C125A U151G],≤ -4.2
19,GGAUCUUCUCGAUCUAACAAAAAAGACAAAUCUGCCACAAAGCUUGAGAGCAUCGUCGGAUGCAGAGGCGGCAGCCUUCGGUGGCGCGAUAGCGCCAAAGUUCUCAACUAUGACACGCAAAACGCGUGCUCCGUUGAAUGGAGUUUAUCAUG [U55G C99A],-3.24

row,Variant,polymerase ribozyme fitness (log ratio)
1,GGAUCUUCUCGAUCUAACAAAAAAGACAAAUCUGCCACAAAGCUUGAGAGCAUCGUCGCAUGCAGAGGCGGCAGCCUUCGGUGGCGCGAUAGCGCCAACGUUCUCAACUAUGACACGCAAAACGCGUGCUCCGUUGAAUGGCGUUUAUCAUG [U55G G59C A142C],-3.24
2,GGAUCUUCUCGAUCUAACAAAAAAGACAAAUCUGCCACAAAGCUUGAGAGCAUCGUCGGAUGCAGAGGCGGCAGCCUUCGGUGGUGCGAUAGCGCCAACGUUCUCAACUAUGACACGCAAAACGCGUGCUCCGUUGAAUGGAGUUUAUCAUG [U55G C85U],-0.188
3,GGAUCUUCUCGAUCUAACAAAAAAGACAAAUCUGCCACAAAGCUUGAGAGCAUCGUCGGAUGCAGAGGCGGCAGCCUUCGGUGGGGCGAUAGCGCCAACGUUCUCAACUAUGACACGCAAAACGCGUGCUCCGUUGAAUGGAGUUUAUCAUG [U55G C85G],-1.66
4,GGAUCUUCUCGAUCUAACAAAAAAGACAAAUCUGCCACAAAGCUUGAGAGCAUCGUCGGAUGCAGAGGCGGCAGCCUUCGGUGGAGCGAUAGCGCCAACGUUCUCAACUAUGACACGCAAAACGCGUGCUCCGUUGAAUGGAGUUUAUCAUG [U55G C85A],-2.4
5,GGAUCUUCUCGAUCUAACAAAAAAGACAAAUCUGCCACAAAGCUUGAGAGCAUCGUCGGAUGCAGAGGCGGCAGCCUUCGAUGGCGCGAUAGCGCCAACGUUCUCAACUAUGACACGUAAAACGCGUGCUCCGUGGAAUGGAGUUUAUCAUG [U55G G81A C118U U135G],-3.84
6,GGAUCUUCUCGAUCUAACAAAAAAGACAAAUCUGCCACAAAGCUUGAGAGCAUCGUCGGAUGCAGAGGCGGCAGCCUUCGAUGGCGCGAUAGCGCCAACGUUCUCAACUAUGACACGCAAAACGCGUGCUCCGUUGAAUGCAGUUGAUCAUG [U55G G81A G141C U146G],-2.62
7,GGAUCUUCUCGAUCUAACAAAAAAGACAAAUCUGCCACAAAGCUUGAGAGCAUCGUCGGAUGCAGAGGCGGCAGCCUUUGGUGGCGCGAUCGCGCCAACGUUCUCAACUAUGACACGCAAAACCCGUGAUCCGUUGUAUGGAGUUUAUCAUG [U55G C79U A91C G124C C129A A137U],≤ -4.2
8,GGAUCUUCUCGAUCUAACAAAAAAGACAAAUCUGCCACAAAGCUUGAGAGCAUCGUCGGAUGCAGAGGCGGUAGCCUUCGGUUGCGCGAUAGCGCUAACGUUCUCAACUAUGACACGCAAAACGCGUGCUCCGUUGAAUGGAGUUUAUCAUG [U55G C72U G83U C96U],-1.11
9,GGAUCUUCUCGAUCUAACAAAAAAGACAAAUCUGCCACAAAGCUUGAGAGCAUCGUCGGAUGCAAAGGCGGCAGCCUUCGGUGGCGCGAUAGCGCCUACGUUCUCAACUAUGACACGCAAAACGCGUGCCCCGUUGAAUGGAGUUUAUCAUG [U55G G65A A97U U130C],-1.27
10,GGAUCUUCUCGAUCUAACAAAAAAGACAAAUCUGCCACAAAGCUUGAGAGCAUCGUCGGAUGCAGAGGCGGCAGCCUUCGGUGGCGCGAUAGCGCCAACGUUCUCAAGUAUGACACGCAAAACGCGUGCUCCUUUGAAUGGCGUUUAUCAUG [U55G C108G G133U A142C],-4.19
11,GGAUCUUCUCGAUCUAACAAAAAAGACAAAUCUGCCACAAAGCUUGAGAGCAUCGUCGGAUGCAGAGGCGGCAGCCUUCGGUGGCGUGAUAGCGCCAACGUUCUCAACUAUGACACGCAAAACGCGUGCUCCGUUGAAUGGAGUUUAUCAUG [U55G C87U],-1.42
12,GGAUCUUCUCGAUCUAACAAAAAAGACAAAUCUGCCACAAAGCUUGAGAGCAUCGUCGGAUGCAGAGGCGGCAGCCUUCGGUGGUGCGAUAGCGCCAACGUUCUCAACUAUGACACGCAAAACGCGUGCUUCGCUGAAUGGAGUUUAUCAUG [U55G C85U C131U U134C],1.73
13,GGAUCUUCUCGAUCUAACAAAAAAGACAAAUCUGCCACAAAGCUUGAGAGCAUCGUCGGAUGCAGAGGCGGUAGCCUUCGGUGGCGCGAUAGCGCCAACGUUCUCAACUAUGACACGCAAAACGCGUGCUCCGUUGAAUGGAGUUUAUCAUG [U55G C72U],-0.349
14,GGAUCUUCUCGAUCUAACAAAAAAGACAAAUCUGCCACAAAGCUUGAGAGCAUCGUCGGAUACAGAGGCGGCAGCCUUCGGUGGCGCGAUAUCGCAAACGUUCUCAACUAUGACACGCAAAACGCGUGCUCCGUUGAAUGGAGUUUAUCAUG [U55G G62A G92U C96A],-3.44
15,GGAUCUUCUCGAUCUAACAAAAAAGACAAAUCUGCCACAAAGCUUGAGAGCAUCGUCGGAUACAGAGGCGGCAGCCUUCGGUGGCGCGAUAGCGCCAACGUUCUCAACUAUGACAGGCAAAACGCGUGCUCCGUUGAAUGGAGUUUAUCAUG [U55G G62A C116G],-1.02
16,GGAUCUUCUCGAUCUAACAAAAAAGACAAAUCUGCCACAAAGCUUGAGAGCAUCGUCGGAUGCAGAGGCGGCAGCCUUCGGUGGCGCGAUAGCGCCAACGUUCUUAACUAUGACACGCAAAACGCGUGCUCCGUUGAAUGUAGUCGAUCAUG [U55G C105U G141U U145C U146G],-3.09
17,GGAUCUUCUCGAUCUAACAAAAAAGACAAAUCUGCCACAAAGCUUGAGAGCAUCGUCGGAUGCAGAGGCGGCAGCCUUCGGUGGCGCGAUAGCGCCAACGUUCUCAACUAUGAUACGCAAAACGCGUGCUCCGUUGAAUGGAGUUUAUCAUG [U55G C114U],-2.17
18,GGAUCUUCUCGAUCUAACAAAAAAGACAAAUCUGCCACAAAGCUUGAGAGCAUCGUCGGAUGCAGAGGCGUCAGCCUUCGGUGGCGCGAUAGCGCCAACGUUCUCAACUAUGACACGCAAAACGCGUGCUCCGUUGAAUGGAGUUUAUCAUG [U55G G71U],-1.86
19,GGAUCUUCUCGAUCUAACAAAAAAGACAAAUCUGCCACAAAGCUUGAGAGCAUCGUCGGAUGCAGAGGCGGCAGCCUUCAGUGGCGCGAUAGCGCCAACGUUCUCAACUAUGACACGCAAAACGCGUGCUCCGUUGAAUGGAGUUUAUCAUG [U55G G80A],-2.09
